Read-outs that look alike come from different tables or passages of the source.
How the values were obtained:
[1] = tested on: HCT 116 colon cancer cell line; test: In vitro cytotoxicity, WST-1 viability test; assay type: cell-based; conditions: mean of 3 independent experiments
Description: The cytotoxicity of different drug conjugates was evaluated using the HCT 116 colon cancer cell line and was compared to the cytotoxicity of the free drug (doxorubicin, mitomycin C or paclitaxel). Cells were seeded at 8 000 cells/well and maintained in Mc Coy medium supplemented with 10% fetal bovine serum for 24 hours before treatment. Cells were incubated with increasing concentrations of drugs or conjugates at 37°C, 5% CO2. The medium was then removed and a WST-1 test (purchased from Roche) was performed according to the manufacturer's instructions. The cytotoxicity of the tested conjugates was expressed as the molar concentration inhibiting 50% of the cell viability (IC50), calculated using Graph Pad Prism 3.02 software. Experimental data are presented as the mean of three independent experiments performed in duplicate.
Table 1: Drug concentration that inhibits 50% of cell viability (IC50) using the HCT 116 cell line. Data represent the mean value of 3 independent experiments. After the indicated exposure time at 37°C, cells were rinsed and a viability assay (WST1 test) was performed to determine IC50.

[2] = In vitro human plasma stability of drug conjugates (HPLC); assay type: in vitro ADME; conditions: for remaining at 6 h, 100 µM: 100 µM paclitaxel conjugates, read-out: plasma stability (% conjugate)
Description: Human plasma (citrated human blood was centrifuged at 600 g for 10 min at +4°C, plasma was recovered and aliquots stored at -20°C) was used to assess the stability of the following drug conjugates: Suc-ALAL-doxorubicin, Suc-βALAL-doxorubicin, TA-ALAL-doxorubicin, Suc-βALAL-MMC, TA-ALAL-MMC, Suc-βALAL-paclitaxel and TA-ALAL-paclitaxel. The drug conjugates (50 µM doxorubicin or MMC, 100 µM paclitaxel conjugates) were incubated at 37°C with human plasma either for 0, 2 or 6 hours, 50 µL of sample were collected at each time point and extraction was performed immediately.
For the doxorubicin conjugate and metabolites, 150 µL of acetonitrile was added to the 50 µL samples. Samples were vortexed and centrifuged for 10 min at 13 000 rpm at room temperature. 100 µL were harvested and 200 µL of 2% ammonium formate pH 4.0 were added before centrifugation (10 min at 13 000 rpm). HPLC analysis (at 560 nm) was performed using the supernatant.
For MMC conjugate and metabolites were extracted prior to HPLC analysis. 100 µL of acetonitrile was added to the 50 µL of sample, prior to vortexing (10 seconds) and centrifugation (10 min at 13 000 rpm) at room temperature. 50 µL of supernatant was recovered and mixed with 150 µL of Phosphate Buffer Saline (PBS) 1X. After centrifugation (10 min at 13 000 rpm), 150 µL of supernatant were collected for HPLC analysis. Stability and reactivation were evaluated by HPLC analysis (at 270 nm) and MMC conjugate and metabolite peak areas were compared.
For the paclitaxel conjugate and metabolites, 150 µL of acetonitrile was added to 50 µL of sample, vortexed and centrifuged for 10 min at 13 000 rpm at room temperature. 100 µL of supernatant was recovered and mixed with 100 µL of water. After centrifugation (10 min at 13 000 rpm), the supernatant was collected for HPLC analysis (at 230 nm).

LS 174T tumors [3] = test: In vivo anti-tumoral efficacy of doxorubicin conjugates in the LS 174T tumor model; design: species or system NMRI nude mice
Excerpt: (§1) Treatments were initiated when the tumors had reached a size of 100 mm^3 (calculated using the following formula: [length x width^2]/2). […] During the course of the experiment, clinical signs, body weight and tumor volume were controlled twice a week. Results are presented as the evolution of mean tumor volume as a function of time. Optimal T/C (ratio of mean tumor volume of treated versus control mice) values were used as a measure of treatment efficacy. The optimal T/C% reflects the maximal tumor growth inhibition achieved. The experiment was repeated twice.

[4] = In vivo toxicity of doxorubicin conjugates in LS 174T tumor-bearing nude mice (i.v.); conditions: for equitoxic dose: i.v.
Description: Toxicity studies were conducted in LS 174T tumor-bearing nude mice following intravenous administration. […] LS 174T tumors were established by a subcutaneous implantation of cells (3 x 10^7 cells injected) in the right flank of 7 weeks old female NMRI nude mice (Janvier, France). The day of the first injection, animals were randomly assigned to groups of 6 animals. The TA-ALAL-doxorubicin and Suc-ALAL-doxorubicin conjugates were dissolved in saline and Suc-βALAL-doxorubicin was prepared in glucose 5%. All conjugates were delivered by bolus intravenous injection (i.v.) in the lateral tail vein at 10 µL/g. During the course of the experiment, clinical signs and body weight were controlled at least twice a week. The experiment was repeated twice. Table 2: In vivo toxicity of TA-ALAL-doxorubicin conjugate compared to Suc-βALAL-doxorubicin and Suc-ALAL-doxorubicin in LS 174T tumor-bearing mice.

LS 174T tumors [5] = test: In vivo anti-tumoral efficacy of mitomycin C conjugates in the LS 174T tumor model; design: species or system NMRI nude mice
Excerpt: as §1
The in vivo anti-tumoral efficacy of TA-ALAL-MMC was compared to that of Suc-βALAL-MMC in the LS 174T tumor model. The establishment of the LS 174T tumors and the treatments were carried out as previously described in Example V. TA-ALAL-MMC conjugate was dissolved in saline and Suc-βALAL-MMC conjugate was prepared in 3% DMSO in Sodium phosphate buffer (15mM). […] During the course of the experiment, clinical signs, body weight and tumor volume were controlled twice a week. The experiment was repeated twice. Table 4: Anti-tumoral efficacy of TA-ALAL-MMC compared to Suc-βALAL-MMC in the LS 174T tumor model.

[6] = Experiment 1, dose 67.7 µmol/kg i.v.
[7] = Experiment 2, dose 77.4 µmol/kg i.v.
[8] = Experiment 1, dose 67.7 µmol/kg i.v., LS 174T tumor-bearing mice
[9] = Experiment 2, LS 174T tumor-bearing mice
[10] = after 6 hours in human plasma at 37°C
[11] = Experiment 1, dose 60 µmol/kg i.v.
[12] = Experiment 2, dose 80 µmol/kg i.v.
[13] = Experiment 1, dose 67.7 µmol/kg i.v., groups of 6 animals

CO[C@@]12[C@H](COC(N)=O)C3=C(C(=O)C(C)=C(N)C3=O)N1C[C@@H]1N[C@@H]12 [Mitomycin C (MMC), mitomycin C]
IC50 ([1]; incubation time 24 h): 5 µM

CC(=O)O[C@H]1C(=O)[C@@]2(C)[C@H]([C@H](OC(=O)c3ccccc3)[C@]3(O)C[C@H](OC(=O)[C@H](O)[C@@H](NC(=O)c4ccccc4)c4ccccc4)C(C)=C1C3(C)C)[C@]1(OC(C)=O)CO[C@@H]1C[C@@H]2O [paclitaxel]
IC50 ([1]; Homo sapiens, incubation time 4h + 72 h): 0.02 µM

COc1cccc2c1C(=O)c1c(O)c3c(c(O)c1C2=O)CC(O)(C(=O)CO)CC3OC1CC(NC(=O)C(CC(C)C)NC(=O)C(C)NC(=O)C(CC(C)C)NC(=O)C(C)NC(=O)C2C(C(=O)O)C(C(=O)O)C2C(=O)O)C(O)C(C)O1 (centres unmarked) [TA-ALAL-dox, TetraAcid-ALAL-doxorubicin]
remaining at 2 h, 50 µM ([2]; after 2 hours in human plasma at 37°C, 50 µM doxorubicin conjugates, read-out: percentage of intact conjugate): 83% | remaining at 6 h, 50 µM ([2]; after 6 hours in human plasma at 37°C, 50 µM doxorubicin conjugates, read-out: percentage of intact conjugate): 67% | IC50 ([1]; incubation time 48 h): > 10 µM | Optimal T/C (%) (LS 174T tumors [3]; [6]): 42% | Optimal T/C (%) (LS 174T tumors [3]; [7]): 36% | Maximal body weight loss % [4, 8]: 13.7% | Maximal body weight loss % ([4]; Experiment 2, dose 55.1 µmol/kg i.v.): 11.3% | Maximal body weight loss % [4, 7]: 17.9% | equitoxic dose [4, 9]: 77.4 µmol/kg

CC(=O)O[C@H]1C(=O)[C@@]2(C)[C@H]([C@H](OC(=O)c3ccccc3)[C@]3(O)C[C@H](OC(=O)[C@H](OC(=O)C(CC(C)C)NC(=O)C(C)NC(=O)C(CC(C)C)NC(=O)CCNC(=O)CCC(=O)O)[C@@H](NC(=O)c4ccccc4)c4ccccc4)C(C)=C1C3(C)C)[C@]1(OC(C)=O)CO[C@@H]1C[C@@H]2O (some centres unmarked) [Suc-βALAL-paclitaxel]
remaining at 6 h, 100 µM [2, 10]: 41% | IC50 ([1]; incubation time 4h + 72 h): 0.762 µM

CC(=O)O[C@H]1C(=O)[C@@]2(C)[C@H]([C@H](OC(=O)c3ccccc3)[C@]3(O)C[C@H](OC(=O)[C@H](OC(=O)C(CC(C)C)NC(=O)C(C)NC(=O)C(CC(C)C)NC(=O)C(C)NC(=O)C4C(C(=O)O)C(C(=O)O)C4C(=O)O)[C@@H](NC(=O)c4ccccc4)c4ccccc4)C(C)=C1C3(C)C)[C@]1(OC(C)=O)CO[C@@H]1C[C@@H]2O (some centres unmarked) [TA-ALAL-paclitaxel, TetraAcid-ALAL-paclitaxel]
remaining at 6 h, 100 µM [2, 10]: 43% | IC50 ([1]; incubation time 4h + 72 h): 10 µM

COc1cccc2c1C(=O)c1c(O)c3c(c(O)c1C2=O)CC(O)(C(=O)CO)CC3OC1CC(NC(=O)C(CC(C)C)NC(=O)C(C)NC(=O)C(CC(C)C)NC(=O)CCNC(=O)CCC(=O)O)C(O)C(C)O1 (centres unmarked) [Suc-βALAL-dox, Suc-βALAL-doxorubicin]
remaining at 2 h, 50 µM ([2]; human, plasma): 77.2% | remaining at 6 h, 50 µM ([2]; human, plasma): 47.5% | IC50 ([1]; incubation time 48 h): > 10 µM | Optimal T/C (%) (LS 174T tumors [3]; [6]): 52% | Optimal T/C (%) (LS 174T tumors [3]; Experiment 2, dose 47.4 µmol/kg i.v.): 52% | equitoxic dose [4, 9]: 47.4 µmol/kg | Maximal body weight loss % ([4]; mouse, in vivo, iv): 15.9%

COc1cccc2c1C(=O)c1c(O)c3c(c(O)c1C2=O)C[C@@](O)(C(=O)CO)C[C@@H]3O[C@H]1C[C@H](N)[C@H](O)[C@H](C)O1 [doxorubicin (dox), doxorubicin]
IC50 ([1]; Homo sapiens, incubation time 48 h): 0.034 µM

Suc-βALAL-mitomycin C [Suc-βALAL-MMC]
% of conjugates remaining ([2]; after 6 hours in human plasma at 37°C, 50 µM MMC conjugates): 73% | IC50 ([1]; incubation time 24 h): 67 µM | Maximal body weight loss % (LS 174T tumors [5]; [11]): 14.5% | Optimal T/C (%) (LS 174T tumors [5]; [11]): 48% | Maximal body weight loss % (LS 174T tumors [5]; [12]): 15.9% | Optimal T/C (%) (LS 174T tumors [5]; [12]): 43%

COc1cccc2c1C(=O)c1c(O)c3c(c(O)c1C2=O)CC(O)(C(=O)CO)CC3OC1CC(NC(=O)C(CC(C)C)NC(=O)C(C)NC(=O)C(CC(C)C)NC(=O)C(C)NC(=O)CCC(=O)O)C(O)C(C)O1 (centres unmarked) [Suc-ALAL-dox, Suc-ALAL-doxorubicin]
remaining at 2 h, 50 µM ([2]; human, plasma): 80% | remaining at 6 h, 50 µM ([2]; human, plasma): 54% | IC50 ([1]; incubation time 48 h): 10 µM | animals died (LS 174T tumors [3]; [13]): 3 animals died | Maximal body weight loss % [4, 8]: 36.1% | dead animals [4, 13]: 3

— patent EP1977765A1, “Peptide prodrugs” (Diatos, priority 2007, dated 2008)
